Laboratory results taken from patent US8105799B2, “Methods of screening compounds inhibiting signal transduction through inflammatory cytokines” (Chugai Seiyaku Kabushiki Kaisha, priority 1998, dated 2012).

Experiments:
peritoneal macrophages [1] = assay: IL-6 production by IL-1α-stimulated peritoneal macrophages expressing TAK1-DN; type: cell-based; conditions: IL-1α 10 ng/ml, 24 hours; TAK1-DN Tgm-derived macrophages compared with wild-type mouse-derived macrophages; ELISA; FIG. 5
Method: (§1) Specifically, 10 ml of ice-cold PBS solution containing 0.36% sodium citrate was injected into the peritoneal cavity of a TAK1-DN-expressing transgenic mouse (TAK1-DN Tgm) or a C57BL/6 mouse (wild-type mouse) of the same weeks of age. The mouse was given a massage for 30 seconds, and then the solution was recovered from the mouse. The solution recovered was centrifuged, and the precipitated cells were resuspended in RPMI1640 (GIBCO-BRL) containing 10% FBS (GIBCO-BRL). The cells were plated in wells at a cell density of 5×10^4/well. The cells were cultured at 37° C. for 2 hours, and floating cells were removed by washing with media. Cells adsorbed on the culture plate were used as peritoneal macrophages.
(§2) LPS, at a final concentration of 10 μg/ml, or IL-1α (Genzyme), at a final concentration of 10 ng/ml, was added to the above-prepared peritoneal macrophages, and the cells were further cultured for 24 hours. The culture supernatant was recovered. Then, the amounts of IL-1β in the culture supernatant of LPS-stimulated macrophages and IL-6 in the culture supernatant of IL-1α-stimulated macrophages were assayed by ELISA kits (Genzyme).

[2] = system: IκBα degradation by proteasome (NFκB activation); assay: IκBα degradation in TAK1-DN expressing peritoneal macrophages stimulated by LPS and IL-1α (Western blot); type: cell-based, mouse; conditions: 30 and 60 minutes, TAK1-DN Tgm-derived macrophages, FIG. 6
Method: The macrophages derived from wild-type mice and from TAK1-DN Tgm, which were prepared as described above, were stimulated by LPS or IL-1, and the time course of degradation of IκBα by proteasome was monitored (0, 30, and 60 minutes). Specifically, the peritoneal macrophages were cultured in wells of a 96-well plate at a cell density of 1×10^6/well. LPS (1 μg/ml) or IL-1α (10 ng/ml) was added to the culture in the presence or absence of proteasome inhibitor MG132 (40 μM). The cells were harvested after 30 or 60 minutes.
The cells were washed with PBS (−), and then a lysis buffer was added thereto for the preparation of cell lysate. An aliquot of each lysate corresponding to about 2×10^5 cells was subjected to gel electrophoresis by 9% SDS-PAGE. The fractionated proteins were blotted onto a nitrocellulose membrane and then incubated with anti-IκBα antibody (SantaCruz) as a primary antibody for 1.5 hours. After wash, horseradish peroxidase-conjugated goat anti-rabbit antibody was used as a secondary antibody. After the reaction of the secondary antibody, the reaction product was detected by using ECL (Amersham).

peritoneal macrophages [3] = assay: Cytokine production by LPS-stimulated peritoneal macrophages expressing TAK1-DN; type: cell-based; conditions: LPS 10 μg/ml, 24 hours, TAK1-DN Tgm-derived macrophages compared with wild-type mouse-derived macrophages, FIG. 4
Method: as §1, §2

TAB1 = target: T1, TAB1 (Homo sapiens, UniProt Q15750); assay: Animal cell two-hybrid assay in CHO cells (luciferase reporter); type: cell-based, hamster; conditions: pM-TAK1DN with pVP16-C68 (TAB1C68), 72 hours, FIG. 7
T1 construct: expressed in transfected cells; host or cells: CHO cells transfected with pVP16-C68
T1 sequence (Q15750 437-504): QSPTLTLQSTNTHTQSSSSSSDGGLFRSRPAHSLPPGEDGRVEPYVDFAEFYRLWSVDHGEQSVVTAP
Text: The animal cell two-hybrid system (Dang et al., (1991) Mol. Cell. Biol. 11, 954-962) using TAB1 peptide and TAK1 peptide was used to analyze whether or not a peptide (TAK1-DN) from Glu at amino acid 77 to Gln at amino acid 303 in the TAK1 peptide of SEQ ID NO: 2 is capable of inhibiting the binding between TAK1 peptide and TAB1 peptide and further capable of inhibiting TAK1 peptide activation in animal cells.
First, each of genes encoding full-length TAK1 and TAK1-DN was ligated with the gene encoding GAL4 DNA-binding domain (GAL4-BD) to prepare an expression vector. The gene encoding full-length TAK1 was obtained from yeast two-hybrid expression plasmid pBTMHu11F (Shibuya H. et al., (1996) 272, 1179-1182) by digesting it with restriction enzymes EcoRI and PstI. Subsequently, the gene was ligated between EcoRI and PstI sites of an expression vector pM (CLONTECH) containing the GAL4-BD gene to obtain an animal cell two-hybrid expression plasmid pM-TAK1. […]
The culture further continued for 72 hours, and then luciferase activities in each cell extract were assayed by using Dual-Luciferase™ Reporter Assay System (Promega). […] The efficiency of gene introduction was normalized by using measured values for the activity of Renilla luciferase derived from the introduced pRL-SV40.

luciferase activity (binding to TAB1) (TAB1): capable of binding to TAB1
B1: TAK1-DN: TAB1-binding region of TAK1, amino acid 77 Glu to amino acid 303 Gln of SEQ ID NO: 2; dominant negative inhibitor (protein, listed as Homo sapiens)
chain: ELRQLSRVNHPNIVKLYGACLNPVCLVMEYAEGGSLYNVLHGAEPLPYYTAAHAMSWCLQCSQGVAYLHSMQPKALIHRDLKPPNLLLVAGGTVLKICDFGTACDIQTHMTNNKGSAAWMAPEVFEGSNYSEKCDVFSWGIILWEVITRRKPFDEIGGPAFRIMWAVHNGTRPPLIKNLPKPIESLMTRCWSKDPSQRPSMEEIVKIMTHLMRYFPGADEPLQYPCQ
induction of IL-6 production by IL-1 stimulation (peritoneal macrophages [1]): significantly inhibited
degradation of IκBα ([2]; IL-1α 10 ng/ml): no remarkable degradation of IκBα
degradation of IκBα ([2]; LPS 1 μg/ml): no remarkable degradation of IκBα
induction of production of IL-1β (peritoneal macrophages [3]; ELISA): significantly inhibited
induction of production of IL-6 (peritoneal macrophages [3]): significantly inhibited
induction of production of TNF (peritoneal macrophages [3]): significantly inhibited
